# From patent US20100062980A1 (NATIONAL UNIVERSITY OF SINGAPORE, published 2010)
# What was measured:
# [1] = target: T1, cloned human β-adrenergic receptor subtype 2 (human, UniProt P07550 1-413)
# [2] = target: T2, cloned human β-adrenergic receptor subtype 1 (human, UniProt P08588 1-477)
# [3] = target: T1, cloned human β-adrenergic receptor …; experiment: radioligand displacement ((-)-[3H]CGP-12177), Ki from IC50 by Cheng-Prusoff
# [4] = target: T2, cloned human β-adrenergic receptor …; experiment: as above
# T2 sequence (P08588 whole entry): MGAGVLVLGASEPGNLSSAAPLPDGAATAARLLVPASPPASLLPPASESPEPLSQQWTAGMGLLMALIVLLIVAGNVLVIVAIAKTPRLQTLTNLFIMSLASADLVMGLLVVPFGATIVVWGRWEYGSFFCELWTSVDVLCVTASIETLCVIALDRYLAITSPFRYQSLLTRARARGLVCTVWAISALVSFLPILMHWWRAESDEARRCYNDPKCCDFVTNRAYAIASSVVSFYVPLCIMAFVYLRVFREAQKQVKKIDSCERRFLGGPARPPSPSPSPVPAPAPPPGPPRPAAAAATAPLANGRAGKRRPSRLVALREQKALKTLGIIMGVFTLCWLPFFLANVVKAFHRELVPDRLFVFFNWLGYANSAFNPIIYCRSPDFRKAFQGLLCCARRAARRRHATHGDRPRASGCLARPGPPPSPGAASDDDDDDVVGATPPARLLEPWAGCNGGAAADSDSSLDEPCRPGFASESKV
binder,measurement,setting,value
"β-cardiotoxin (ligand, also called beta-cardiotoxin; AY354198 protein) RKCLNTPLPLIYTTCPIGQDKCVKMTIKKLPSKYDVIRGCIDICPKSSADVEVLCCDTNKCNK",IC50,[1],5 µM
same,IC50,[2],10 µM
same,Ki,[3],2.3 µM
same,Ki,[4],5.3 µM
